Where “and” joins values, the source holds several entries; their conditions need not be identical. Identical values can stand only once. Entries after “also recorded” stand apart in the source; their conditions may differ.
Assays:
[1] = test system: NOD mice receiving spleen cells from diabetic donors; assay: Adoptive transfer of diabetes in NOD mice; type: in vivo
Source text: For the adoptive transfer of diabetes experiments, NOD mice were obtained from Taconic Farms (Germantown, N.Y.) or from the Joslin Diabetes Center (Boston, Mass.). Spontaneously diabetic (D) females of recent onset (13–20 weeks of age) were used as spleen cell donors and 8 week old nondiabetic (Y) females served as recipients. Spleen cells from 4 week old nondiabetic (Y) female donors which fail to transfer disease were used as a negative control.
Recipient mice were placed on acidified water (1:8400 dilution of concentrated HCl in water) one week prior to sublethal irradiation (775 rad) performed in split doses (300 rad, 300 rad, and 175 rad) on each of three days (day −2, −1, and the day of transfer), in order to minimize any incidence of intestinal infection subsequent to high dose irradiation (Gamma Cell 1000 Cesium ^137 source, Nordion International, Inc., Ontario, Canada). Spleens were harvested from diabetic donors or from nondiabetic controls, cell suspensions made and red cells lysed with Hemolytic Geys solution. […] Another group received PBS alone without cells transferred. The fusion protein LFA-3Ig (LFA-3TIP) was isolated and purified as described in PCT US92/02050 and Miller et al., 1993 [36]. […] Diabetes onset was monitored as described above.

[2] = test system: dual responder allergic sheep; assay: Sheep model of airways hyper-responsiveness (Ascaris suum antigen challenge); type: in vivo
Procedure: Experiments were performed essentially as described by Abraham et al.. […] To measure breathing mechanics and physical changes in the airways, the sheep were restrained in a prone position with heads immobilized. A balloon catheter was advanced through one nostril under topical anesthesia with 2% lidocaine solution to the lower esophagus, and a cuffed endotracheal tube was advanced through the other nostril (using a flexible fiberoptic bronchoscope as a guide) for the measurement of airway mechanics and during aerosol challenges. Pleural pressure was estimated with the esophageal balloon catheter (filled with 1 ml of air) positioned 5–10 cm from the gastroesophageal junction. In this position, end expiratory pleural pressure ranged between −2 and −5 cm H2O. Once the balloon was placed, it was secured so that it remained in position for the duration of the experiment. Lateral pressure in the trachea was measured with a sidehole catheter, (inner diam. 2.5 mm) advanced through and positioned distal to the tip of the endotracheal tube. Transpulmonary pressure (the difference between tracheal and pleural pressure) was measured with a differential pressure transducer catheter system (MP45, Validyne, Northridge, Calif.). […] Pulmonary resistance (RL) was measured by connecting the proximal end of the endotracheal tube to a Fleich pneumotachograph (Dyna Sciences, Blue Bell Pa.). Signals indicating flow and transpulmonary pressure were recorded on an oscilloscope recorder (Model DR-12; Electronics for Medicine, White Plains, N.Y.) linked to a computer for automatic calculation of pulmonary resistance (RL) from transpulmonary pressure, respiratory volume (obtained by digital integration) and flow by the mid-volume technique, analyzed from 5–10 breaths. Thoracic gas volume (Vtg) was measured immediately after determination of RL in a constant volume body plethysmograph. Specific lung resistance (SRL) was calculated from these values (SRL=Vtg×RL).
Airway responsiveness was determined by performing dose response curves to inhaled carbachol. The dose response curves were plotted using measurements of SRL taken immediately after inhalation of buffer (PBS) alone and after each consecutive administration of 10 breaths of increasing concentrations of carbachol in PBS. The concentrations of carbachol were 0.25%, 0.5%, 1.0%, 2.0% and 4.0% wt/vol in PBS. The provocation test was discontinued when SRL increased over 400% from the post-PBS value or after the highest carbachol concentration had been administered. Airway responsiveness was determined by calculating from the dose response curves the cumulative carbachol dose in breath units (BU) that increased specific lung resistance 400% over the post buffer value (PD400%). One breath unit was defined as one breath of a 1% wt/vol carbachol solution.
Each sheep was subjected to a trial as a control in which a placebo (PBS without additive) was used as a pretreatment 30 minutes before allergen challenge with Ascaris suum antigen (Greer Diagnostics, Lenoir, N.C.). The antigen solution was delivered as an aerosol using a disposable medical nebulizer (RAINDROP®, Puritan Bennett, Lenexa, Kans.) that provided an aerosol with a mass median aerodynamic diameter of 3.2 μM (geometric SD 1.9) as determined by an Andersen cascade impactor. The Ascaris suum extract was diluted in PBS to a concentration of 82,000 Protein Nitrogen Units(PNU)/ml. The output of the nebulizer was directed into a plastic T-tube, one end of which was connected to the inspiratory port of a Harvard respirator. A dosimeter connected to the nebulizer consisting of a solenoid valve and a 20 psi compressed air source and the solenoid valve was activated at the beginning of the inspiratory cycle of the Harvard respirator for one second. The aerosol delivered at a tidal volume of 500 ml and a rate of 20 breaths per min. for 20 min. Each sheep was challenged with an equivalent dose of antigen (400 breaths) in the control and VCAM1-IgG1 trials. […]

VLA-4 = VLA-4 (Homo sapiens, UniProt P13612); assay: VLA-4-mediated T cell activation; type: cell-based
CTT VLA4 on CTT PBLs = assay: FACS analysis of binding of anti-VLA-4 monoclonal antibodies to CTT peripheral blood mononuclear leukocytes; design: species or system cotton top tamarin
Procedure: Blood samples (3 ml) from CTTs were heparinized and the CTT peripheral blood mononuclear leukocytes (PBLs) were isolated using a Ficoll-Hypaque gradient (Pharmacia) according to the manufacturer's instructions for isolation of human PBLs. CTT PBLs were examined for their ability to bind to the murine anti-human VLA-4 monoclonal antibodies HP1/2 and HP2/1 by FACS analysis using a Becton Dickenson FACStar and standard techniques (see, e.g., Lobb et al., 1991a).

VCAM-1-expressing cells = assay: Leukocyte adhesion to VCAM-1-expressing cells; type: cell-based
[3] = test system: cotton top tamarins (CTTs) exhibiting symptoms of spontaneous colitis; assay: Cotton top tamarin trials: acute inflammation index from colon biopsies; type: in vivo; design: Day 0 AII (acute inflammation index) / Day 10 AII (acute inflammation index): scale not given here; details: for Day 0 AII (acute inflammation index) / Day 10 AII (acute inflammation index): individual treated CTTs
Procedure: Five CTTs received HP1/2 and five received placebo, by intravenous injection. The CTTs receiving HP1/2 were injected with 1 mg HP1/2 per day (i.e., about 2 mg/kg/day, based on approximate half-kilogram weight of a CTT) for eight days (on Days 0, 1, 2, 3, 4, 5, 6, and 7 of the trial). Colon tissue samples obtained from the animals were biopsied every other day (on Days 0, 2, 4, 6, 8, and 10 of the trial). Data from the biopsies were used to determine an acute inflammation index for each animal, giving a semi-quantitative analysis of the course of the colitis. (See, Madara et al..) The inflammation indices before the trial began (Day 0) and at the end of the trial at Day 10 are set forth in Table II, below: (“Treated CTTs” received antibody-HP1/2; “Control CTTs” received placebo) The trial described in Example III was repeated using 14 CTTs, 7 receiving HP1/2 and 7 receiving placebo.

[4] = 15 mg aerosol 2, 8 and 24 h after antigen challenge, listed as VCAM-Ig
[5] = 30 mg aerosol 2 and 24 h after antigen challenge (optimal dose), listed as VCAM-Ig
[6] = 30 mg aerosol 30 min before and 8 h after antigen challenge, listed as VCAM-Ig
[7] = 30 mg aerosol 30 min before antigen challenge
[8] = 60 mg aerosol 30 min before antigen challenge, listed as VCAM-Ig

VLA-4, sequence (P13612 34-1032): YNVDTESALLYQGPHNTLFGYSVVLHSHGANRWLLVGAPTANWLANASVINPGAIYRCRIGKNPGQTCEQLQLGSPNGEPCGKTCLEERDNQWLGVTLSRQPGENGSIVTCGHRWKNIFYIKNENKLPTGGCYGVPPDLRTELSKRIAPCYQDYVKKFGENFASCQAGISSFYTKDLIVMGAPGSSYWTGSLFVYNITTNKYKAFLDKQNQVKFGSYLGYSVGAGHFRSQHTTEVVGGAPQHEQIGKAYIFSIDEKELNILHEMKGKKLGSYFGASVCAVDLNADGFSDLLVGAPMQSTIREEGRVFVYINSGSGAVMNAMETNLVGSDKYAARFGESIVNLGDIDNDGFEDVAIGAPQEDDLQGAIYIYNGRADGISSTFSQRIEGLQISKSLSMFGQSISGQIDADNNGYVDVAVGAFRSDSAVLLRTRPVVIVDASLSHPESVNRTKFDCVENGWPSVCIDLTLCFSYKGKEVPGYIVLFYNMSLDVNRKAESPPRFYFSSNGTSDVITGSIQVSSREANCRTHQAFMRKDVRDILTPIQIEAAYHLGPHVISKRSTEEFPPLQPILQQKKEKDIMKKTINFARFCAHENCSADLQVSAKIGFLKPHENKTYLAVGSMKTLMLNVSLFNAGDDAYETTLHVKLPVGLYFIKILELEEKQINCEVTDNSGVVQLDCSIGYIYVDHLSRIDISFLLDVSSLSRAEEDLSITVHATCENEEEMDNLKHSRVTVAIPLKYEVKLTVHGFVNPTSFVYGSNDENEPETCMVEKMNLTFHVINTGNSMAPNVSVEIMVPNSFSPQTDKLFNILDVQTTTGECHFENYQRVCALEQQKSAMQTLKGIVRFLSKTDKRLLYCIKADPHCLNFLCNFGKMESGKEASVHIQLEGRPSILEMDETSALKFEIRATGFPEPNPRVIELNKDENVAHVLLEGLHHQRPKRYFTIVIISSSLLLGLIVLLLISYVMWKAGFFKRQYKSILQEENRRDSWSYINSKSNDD
VLA-4, sequence (P05556 21-798 partner): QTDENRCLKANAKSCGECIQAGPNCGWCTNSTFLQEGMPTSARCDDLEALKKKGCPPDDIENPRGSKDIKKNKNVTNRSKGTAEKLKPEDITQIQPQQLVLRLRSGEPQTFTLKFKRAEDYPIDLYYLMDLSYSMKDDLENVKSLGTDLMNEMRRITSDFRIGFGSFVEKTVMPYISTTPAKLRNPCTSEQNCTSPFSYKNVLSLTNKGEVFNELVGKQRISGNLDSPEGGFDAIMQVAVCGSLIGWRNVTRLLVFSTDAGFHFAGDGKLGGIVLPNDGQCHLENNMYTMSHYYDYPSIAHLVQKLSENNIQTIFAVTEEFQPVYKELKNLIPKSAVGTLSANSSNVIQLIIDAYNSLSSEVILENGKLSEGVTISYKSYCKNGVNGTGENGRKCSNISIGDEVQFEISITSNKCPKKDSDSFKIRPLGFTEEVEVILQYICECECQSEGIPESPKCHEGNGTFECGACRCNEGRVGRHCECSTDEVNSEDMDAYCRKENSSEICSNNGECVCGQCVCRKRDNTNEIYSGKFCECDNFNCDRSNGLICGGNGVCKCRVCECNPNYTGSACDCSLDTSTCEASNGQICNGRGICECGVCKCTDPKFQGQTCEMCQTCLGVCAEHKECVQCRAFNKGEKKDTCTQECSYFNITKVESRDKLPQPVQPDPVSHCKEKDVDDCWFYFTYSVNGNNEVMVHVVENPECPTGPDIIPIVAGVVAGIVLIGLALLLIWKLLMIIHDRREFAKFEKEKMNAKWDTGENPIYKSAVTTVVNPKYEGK

VCAM 2D-IgG: soluble form of VCAM1: two N-terminal domains of VCAM1 fused to human IgG1 heavy chain constant region (hinge, CH2, CH3); SEQ ID NO: 5/12
onset of diabetes in recipients of cells from diabetic donor mice ([1]; 100 μg i.p. through day 17): significantly inhibits the onset of diabetes | serum level of fusion protein (ELISA) ([1]; 100 μg/0.2 ml i.p. twice weekly through day 17): sufficient to saturate VLA4-positive cells | incidence of diabetes ([1]; by day 30 post-transfer, recipients of cells from diabetic donors, 100 μg i.p. through day 17, n=5): 60% | airways hyper-responsiveness (AHR) [2, 4]: blockage of the AHR; also recorded: inhibition of AHR | late phase response (LPR) [2, 4]: partial blockage; also recorded: significant but partial inhibition | airways hyper-responsiveness (AHR) [2, 5]: complete blockage; also recorded: complete inhibition | late phase response (LPR) [2, 5]: complete blockage; also recorded: complete inhibition | airways hyper-responsiveness (AHR) [2, 6]: no blockage; also recorded: no inhibition | late phase response (LPR) [2, 6]: blocked completely; also recorded: complete inhibition | airways hyper-responsiveness (AHR) [2, 7]: no effect | late phase response (LPR) [2, 7]: significant but partial inhibition | airways hyper-responsiveness (AHR) [2, 8]: blocked; also recorded: inhibition of AHR | late phase response (LPR) [2, 8]: partial blockage; also recorded: significant but partial inhibition | late phase response (LPR) versus placebo control ([2]; all dosing regimens, ten animals): partial or complete inhibition

B1: HP1/2: murine anti-human VLA-4 monoclonal antibody (IgG1) obtained from Biogen, Inc.; VH/VK in SEQ ID NO: 1-4 (antibody, listed as Mus musculus, V domains shown)
VH: EVKLQQSGAELVKPGASVKLSCTASGFNIKDTYMHWVKQRPEQGLEWIGRIDPASGDTKYDPKFQVKATITADTSSNTAWLQLSSLTSEDTAVYYCADGMWVSTGYALDFWGQGTTVTVSS
VL: SIVMTQTPKFLLVSAGDRVTITCKASQSVTNDVAWYQQKPGQSPKLLIYYASNRYTGVPDRFTGSGYGTDFTFTISTVQAEDLAVYFCQQDYSSPYTFGGGTKLEI
VLA-4-mediated T cell activation (VLA-4): not to promote | binding to CTT PBLs (CTT VLA4 on CTT PBLs): bound | leukocyte adhesion to VCAM-1-expressing cells (VCAM-1-expressing cells): block | change in acute inflammation index ([3]; Example III, Day 0 to Day 10): significant (p<0.01) decrease | Day 0 AII (acute inflammation index) ([3]; Example III, before the trial began, 1 mg HP1/2 per day i.v. Days 0-7): 2 (3×) and 1 (2×) | Day 10 AII (acute inflammation index) ([3]; Example III, end of trial, 1 mg HP1/2 per day i.v. Days 0-7): 1 and 0 (4×) | Day 0 AII, MEAN ([3]; Example III, mean of 5 treated CTTs, before the trial began): 1.6 | Day 10 AII, MEAN ([3]; Example III, mean of 5 treated CTTs, end of trial): 0.2 | Day 0 AII (acute inflammation index) ([3]; Example IV (repeat trial), Day 0): 2 | Day 10 AII (acute inflammation index) ([3]; Example IV (repeat trial), Day 10): 0 (5×) and 1 and 2 | change in acute inflammation ([3]; Example IV, Day 0 to Day 10): significant decrease | Day 0 AII, MEAN ([3]; Example IV, mean of 7 treated CTTs, Day 0): 2.0 | Day 10 AII, MEAN ([3]; Example IV, mean of 7 treated CTTs, Day 10): 0.43 | inflammation of biopsied intestinal tissue ([3]; summary statement): significant reduction in inflammation
